These results are taken from patent publication US20060057623.

This series has as its target HDAC1 (histone deacetylase 1), wild-type, Q13547.

Sequence of HDAC1 (histone deacetylase 1), wild-type, Q13547 (Q13547 whole entry): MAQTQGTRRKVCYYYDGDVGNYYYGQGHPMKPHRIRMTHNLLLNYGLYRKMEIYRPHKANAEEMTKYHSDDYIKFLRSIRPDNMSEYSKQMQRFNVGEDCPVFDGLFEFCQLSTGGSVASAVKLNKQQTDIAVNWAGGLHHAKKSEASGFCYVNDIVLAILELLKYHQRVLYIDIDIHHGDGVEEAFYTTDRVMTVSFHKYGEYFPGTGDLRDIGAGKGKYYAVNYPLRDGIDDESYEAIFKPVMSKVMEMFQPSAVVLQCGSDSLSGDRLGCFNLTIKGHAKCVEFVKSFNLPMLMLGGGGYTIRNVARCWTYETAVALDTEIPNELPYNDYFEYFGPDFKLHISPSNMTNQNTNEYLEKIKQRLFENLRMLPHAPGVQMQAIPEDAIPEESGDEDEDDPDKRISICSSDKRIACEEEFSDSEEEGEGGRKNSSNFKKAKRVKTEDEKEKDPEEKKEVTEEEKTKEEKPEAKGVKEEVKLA

B1: SENP1 (Sentrin/SUMO-specific protease 1), wild-type (protein)
chain: MDDIADRMRMDAGEVTLVNHNSVFKTHLLPQTGFPEDQLSLSDQQILSSRQGHLDRSFTCSTRSAAYNPSYYSDNPSSDSFLGSGDLRTFGQSANGQWRNSTPSSSSSLQKSRNSRSLYLETRKTSSGLSNSFAGKSNHHCHVSAYEKSFPIKPVPSPSWSGSCRRSLLSPKKTQRRHVSTAEETVQEEEREIYRQLLQMVTGKQFTIAKPTTHFPLHLSRCLSSSKNTLKDSLFKNGNSCASQIIGSDTSSSGSASILTNQEQLSHSVYSLSSYTPDVAFGSKDSGTLHHPHHHHSVPHQPDNLAASNTQSEGSDSVILLKVKDSQTPTPSSTFFQAELWIKELTSVYDSRARERLRQIEEQKALALQLQNQRLQEREHSVHDSVELHLRVPLEKEIPVTVVQETQKKGHKLTDSEDEFPEITEEMEKEIKNVFRNGNQDEVLSEAFRLTITRKDIQTLNHLNWLNDEIINFYMNMLMERSKEKGLPSVHAFNTFFFTKLKTAGYQAVKRWTKKVDVFSVDILLVPIHLGVHWCLAVVDFRKKNITYYDSMGGINNEACRILLQYLKQESIDKKRKEFDTNGWQLFSKKSQEIPQQMNGSDCGMFACKYADCITKDRPINFTQQHMPYFRKRMVWEILHRKLL
Regarding B1, the “deacetylase activity of HDAC1 precipitates” value is recorded as “In the presence of SENP1, the deacetylase activity of HDAC1 precipitates had a 70% reduction”.
